How the values were obtained:
[1] = target: mRNA-expressed CH848 10.17DT DS SOSIP trimer (HIV-1 (CH848 10.17)); assay: SEC
[2] = target: mRNA-expressed CH848 10.17DT SOSIPv4.1 trimer (HIV-1 (CH848 10.17)); assay: SEC

Substance	stoichiometry N [1]	stoichiometry N [2]
mRNA-expressed CH848 10.17DT DS SOSIP trimer (domain or fragment)	3	
mRNA-expressed CH848 10.17DT SOSIPv4.1 trimer (domain or fragment)		3
